Measurements published in publication PMC11084278 (International Journal of Molecular Sciences, 2024).
Marks after values point to notes of the source that are not given here.

Columns and labels:
[1] = molecular target: HA-tagged ACKR3 C-terminally fused to SmBit (UniProt P25106)
[2] = molecular target: T1, NLuc-CXCR4 (Homo sapiens, UniProt P61073)
[3] = molecular target: T1, NLuc-CXCR4; experiment: FRET or BRET; NanoBRET competition binding against CXCL12-AZD488 (0.3 nM on NLuc-ACKR3, 10 nM on NLuc-CXCR4 HEK293T membranes) with increasing unlabeled ligand; HBSS with 0.2% BSA; 1 h at room temperature; Ki by Cheng-Prusoff
[4] = molecular target: T1, NLuc-CXCR4; experiment: FRET or BRET; NanoBRET competition binding against CXCL12-AZD594 (0.3 nM on NLuc-ACKR3, 10 nM on NLuc-CXCR4 HEK293T membranes) with increasing unlabeled ligand; HBSS with 0.2% BSA; 1 h at room temperature; Ki by Cheng-Prusoff
[5] = molecular target: T1, NLuc-CXCR4; experiment: FRET or BRET; NanoBRET competition binding against CXCL12-AZD647 (0.3 nM on NLuc-ACKR3, 10 nM on NLuc-CXCR4 HEK293T membranes) with increasing unlabeled ligand; HBSS with 0.2% BSA; 1 h at room temperature; Ki by Cheng-Prusoff
[6] = molecular target: T1, NLuc-CXCR4; experiment: FRET or BRET; NanoBRET competition binding against CXCL12-AZD546 (0.3 nM on NLuc-ACKR3, 10 nM on NLuc-CXCR4 HEK293T membranes) with increasing unlabeled ligand; HBSS with 0.2% BSA; 1 h at room temperature; Ki by Cheng-Prusoff
[7] = molecular target: T1, NLuc-CXCR4; experiment: NanoBRET saturation binding to HEK293T membranes expressing NLuc-CXCR4; design: 5HT3a signal peptide (N); host or cells: HEK293T, transient; membrane preparation; settings: non-specific binding with 10 µM IT1t, mean ± SD
Protocol: (§1) HEK293T cells (2 × 10^6) were seeded in 10 cm^2 culture dishes. […] After two days, the cells were collected in PBS and centrifuged at 2700 rpm at 4 °C. Next, the cell pellet was resuspended in ice-cold membrane buffer (15 mM of Tris, 0.3 mM of EDTA, 2 mM of MgCl2, pH 7.4 at 4 °C) and homogenized by plunging the pestle using 10 strokes at 1100 rpm. The cell homogenates were exposed to two freeze and thaw cycles using liquid nitrogen and were centrifuged at 25,000 rpm. The pellet was resuspended in Tris-sucrose buffer (20 mM of Tris, 250 mM of Sucrose, pH 7.4 at 4 °C). Finally, cell membranes were homogenized using a 23-gauge needle, followed by snap-freezing with liquid nitrogen and then stored at −80 °C.
(§2) For saturation binding experiments, the KD was obtained using one-site total and non-specific binding. For binding experiments, pIC50 values were obtained using a one-site pIC50 model. The equilibrium dissociation constants (Ki) of unlabeled ligands were subsequently calculated using the Cheng−Prusoff equation. (1) K1=IC50/1+L/KD where [L] is the concentration of the labeled ligand and KD is the equilibrium dissociation constant of the labeled ligand.

[8] = molecular target: T2, NLuc-CXCR3 (Homo sapiens, UniProt P49682); experiment: NanoBRET competition binding versus CXCL10-AZD488 on NLuc-CXCR3 membranes only (520 nm)
T2 construct: 5HT3a signal peptide (N); expressed in transfected cells; host or cells: HEK293T, transient; membrane preparation
T2 sequence (P49682 2-368 limits assumed): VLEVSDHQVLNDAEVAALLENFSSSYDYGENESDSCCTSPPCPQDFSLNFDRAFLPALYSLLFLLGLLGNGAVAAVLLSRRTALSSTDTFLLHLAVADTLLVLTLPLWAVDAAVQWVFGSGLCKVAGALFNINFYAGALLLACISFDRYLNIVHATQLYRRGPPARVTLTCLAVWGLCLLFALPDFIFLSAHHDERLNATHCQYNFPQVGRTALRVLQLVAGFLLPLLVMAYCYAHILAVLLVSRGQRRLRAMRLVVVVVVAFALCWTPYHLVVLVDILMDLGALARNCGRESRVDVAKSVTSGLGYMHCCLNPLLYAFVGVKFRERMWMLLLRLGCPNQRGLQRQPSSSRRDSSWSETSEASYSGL
Protocol: (§3) HEK293T cells (2 × 10^6) were seeded in 10 cm^2 culture dishes. After 24 h, the cells were transfected with 0.25 µg of plasmid DNA encoding human NLuc-ACKR3, NLuc-CXCR4 or NLuc-CXCR3, and 4.75 µg of pcDEF3 plasmid DNA using 30 µg of linear PEI. After two days, the cells were collected in PBS and centrifuged at 2700 rpm at 4 °C. Next, the cell pellet was resuspended in ice-cold membrane buffer (15 mM of Tris, 0.3 mM of EDTA, 2 mM of MgCl2, pH 7.4 at 4 °C) and homogenized by plunging the pestle using 10 strokes at 1100 rpm. The cell homogenates were exposed to two freeze and thaw cycles using liquid nitrogen and were centrifuged at 25,000 rpm. The pellet was resuspended in Tris-sucrose buffer (20 mM of Tris, 250 mM of Sucrose, pH 7.4 at 4 °C). Finally, cell membranes were homogenized using a 23-gauge needle, followed by snap-freezing with liquid nitrogen and then stored at −80 °C.
(§4) NanoBRET was measured after 1 h of incubation at room temperature, as described above.
as §2

[9] = molecular target: T2, NLuc-CXCR3; experiment: Multiplex NanoBRET binding, mixed NLuc-CXCR3 and NLuc-CXCR4 membranes, read at 520 nm (CXCL10-AZD488); settings: mixed (1:1) NLuc-CXCR3 and NLuc-CXCR4 membranes; both CXCL10-AZD488 and CXCL12-AZD647, 10 nM each
Protocol: as §3, §4
as §2, with “(1) K1=IC50/1+L/KD where [L] is the concentration of the labeled ligand and KD is the equilibrium dissociation constant of the labeled ligand.” left out

[10] = molecular target: T1, NLuc-CXCR4; experiment: Multiplex NanoBRET binding, mixed NLuc-CXCR3 and NLuc-CXCR4 membranes, read at 640 nm (CXCL12-AZD647); design: 5HT3a signal peptide (N); host or cells: HEK293T, transient; membrane preparation; settings: mixed (1:1) NLuc-CXCR3 and NLuc-CXCR4 membranes; both CXCL10-AZD488 and CXCL12-AZD647, 10 nM each
Protocol: as §1, §2

[11] = molecular target: NLuc-ACKR3 (Homo sapiens, UniProt P25106); experiment: NanoBRET competition binding versus AZDye-labeled CXCL12 on NLuc-ACKR3 membranes; design: 5HT3a signal peptide (N); host or cells: HEK293T, transient; membrane preparation
Protocol: as §1
All experiments were analyzed using Graphpad Prism 9.0. For binding experiments, pIC50 values were obtained using a one-site pIC50 model using global fitting with shared non-specific binding values.
as §2

[12] = molecular target: CXCR4 (Homo sapiens, UniProt P61073); experiment: CXCR4-mediated inhibition of isoprenaline-induced intracellular cAMP (FRET-based EPAC sensor) in HEK293 cells; type: cell-based; settings: HEK293 cells stably expressing CXCR4 and EPAC sensor; 100 nM isoprenaline; mean ± SD
Protocol: Human embryonic kidney 293 cells stably co-expressing CXCR4 and the FRET-based EPAC sensor with mCerulean and mCitrine as a FRET pair were kindly provided by Dr. M. Zimmermann (Interax Biotech, Zurich, Switzerland), and were cultured in DMEM supplemented with 10% FBS and penicillin ([…]), streptomycin ([…]), zeocin (0.06 mg/mL) and G418 (0.6 mg/mL) at 37 °C with 5% CO2.
HEK293 cells stably expressing CXCR4 and a FRET-based EPAC sensor were seeded into a 96-well black plate (0.5 × 10^6/well). […] Fluorescence was measured using the following parameters: excitation at 430–15 nm, and emission at 530–20 and 480–20 nm using the CLARIOstar Plus (BMG Labtech, Ortenberg, Germany). The FRET ratio was calculated by dividing the signal of the acceptor at 530 nm by the donor signal at […].

[13] = molecular target: T3, NLuc-ACKR3 (human, UniProt P25106 1-362); experiment: FRET or BRET; NanoBRET competition binding against CXCL12-AZD488 (0.3 nM on NLuc-ACKR3, 10 nM on NLuc-CXCR4 HEK293T membranes) with increasing unlabeled ligand; HBSS with 0.2% BSA; 1 h at room temperature; Ki by Cheng-Prusoff; settings: one partner purified
T3 construct: ACKR3 (CXCR7), human; NLuc is preceded by the 5HT3a signal peptide and fused via a Gly-Ser linker (BamHI site) to ACKR3, in pcDNA3.1; also called CXCR7; source: HEK293T, transiently transfected, membrane preparation; not shown: NLuc, N-terminal, kept

[14] = molecular target: T3, NLuc-ACKR3; experiment: FRET or BRET; NanoBRET competition binding against CXCL12-AZD594 (0.3 nM on NLuc-ACKR3, 10 nM on NLuc-CXCR4 HEK293T membranes) with increasing unlabeled ligand; HBSS with 0.2% BSA; 1 h at room temperature; Ki by Cheng-Prusoff; settings: one partner purified
[15] = molecular target: T3, NLuc-ACKR3; experiment: FRET or BRET; NanoBRET competition binding against CXCL12-AZD647 (0.3 nM on NLuc-ACKR3, 10 nM on NLuc-CXCR4 HEK293T membranes) with increasing unlabeled ligand; HBSS with 0.2% BSA; 1 h at room temperature; Ki by Cheng-Prusoff; settings: one partner purified
[16] = molecular target: T3, NLuc-ACKR3; experiment: FRET or BRET; NanoBRET competition binding against CXCL12-AZD546 (0.3 nM on NLuc-ACKR3, 10 nM on NLuc-CXCR4 HEK293T membranes) with increasing unlabeled ligand; HBSS with 0.2% BSA; 1 h at room temperature; Ki by Cheng-Prusoff; settings: one partner purified
[17] = 0.3 nM probe, Cheng-Prusoff, mean ± SD

With “Human recombinant CXCL12 (unlabeled) (from UniProt P48061 22-93) (ligand)” the pEC50 of β-arrestin2 recruitment to ACKR3 (NanoBiT complementation, HEK293T cells) [1] was 8, the pEC50 of inhibition of isoprenaline-induced cAMP (FRET-based EPAC sensor) in HEK293 cells stably expressing CXCR4 (not the NLuc fusion) [2] was 9.7 and the pKi [3] was 8.4. For the same molecule, the pKi [4] was 8.2, the pKi [5] was 8.4 and the pKi [6] was 9.

For “CXCL12-AZD647: CXCL12 tagged at the C-terminus with fluorescent AZDye 647 by click chemistry”, the “pKD for CXCR4” value [7] was 7.9 ± 0.1.

In the case of CCNC(=O)c1cnc(N2CCN(C3CCN(Cc4ccc(Cl)cc4)CC3)[C@@H](CC)C2)c(Cl)c1 [VUF11211], the “pKi, CXCR3 Only at 520 nm” value ([8]; 10 nM CXCL10-AZD488, NLuc-CXCR3 membranes only) is reported as 8.8 ± 0.2, the “fold higher than the Ki from competition binding with [125I]-CXCL11” value ([8]; comparison with ref 23) is reported as 10 fold and the “fold lower than the Ki from competition binding with [3H]-VUF11211” value ([8]; comparison with ref 23) is reported as 1.5 fold. The “pKi, Multiplex at 520 nm” value [9] was 8.8 ± 0.1 and the “pKi, Multiplex at 640 nm” value [10] was “no clear competition binding curve was detected”.

For CC1(C)CN2C(CSC(=NC3CCCCC3)NC3CCCCC3)=CSC2=N1 [IT1t], the “pKi, Multiplex at 520 nm” value [9] was “no clear competition binding curve was detected”.

For COc1cc(C(=O)N(CCC2CCCN2C)CC(C)=Cc2ccccc2F)cc(OC)c1OC (centres unmarked) [VUF15485], the “Binding affinity (pKi) for NLuc-ACKR3, probe CXCL12-AZD488” value [11, 17] was 7.9 ± 0.1 ^b, the “Binding affinity (pKi) for NLuc-ACKR3, probe CXCL12-AZD546” value [11, 17] was 7.9 ± 0.1 and the “Binding affinity (pKi) for NLuc-ACKR3, probe CXCL12-AZD594” value [11, 17] was 8.1 ± 0.2. For the same molecule, the “Binding affinity (pKi) for NLuc-ACKR3, probe CXCL12-AZD647” value [11, 17] was 8.2 ± 0.1 and the “fold lower affinity for ACKR3 when tested in competition with CXCL12-AZD488” value ([11]; compared with the other three probes) was 5 fold.

For “CXCL12-AZD594: CXCL12 tagged at the C-terminus with fluorescent AZDye 594 by click chemistry”, the “cAMP by CXCR4 (pEC50)” value [12] was 8.9 ± 0.2 and the “pKD for CXCR4” value [7] was 7.6 ± 0.1.

With “CXCL12-AZD546: CXCL12 tagged at the C-terminus with fluorescent AZDye 546 by click chemistry” the “cAMP by CXCR4 (pEC50)” value [12] was 8.6 ± 0.3 and the “pKD for CXCR4” value [7] was 8.0 ± 0.0.

B1: CXCL11 (unlabeled) (ligand, UniProt O14625 22-94, looked up)
chain: FPMFKRGRCLCIGPGVKAVKVADIEKASIMYPSNNCDKIEVIITLKENKGQRCLNPKSKQARLIIKKVERKNF
notes: CXCL11, unlabeled chemokine
B1 showed a pKi [13] of 9.4, a pKi [14] of 9.5 and a pKi [15] of 9.2. For the same molecule, the pKi [16] was 9.4.
